Biological target: GFP:2B (Grapevine fanleaf virus movement protein 2B fused to EGFP) (Grapevine fanleaf virus)
Experiment: FRET or BRET; FRET-FLIM in living N. benthamiana leaf epidermal cells after transient co-expression by agro-infiltration; GFP fusion of the movement protein as donor, RFP fusion as acceptor; fluorescence lifetime of the donor measured at tubules or plasmodesmata

GFP:2B (Grapevine fanleaf virus movement protein 2B fused to EGFP) (natural protein)
mean FRET (percent): 24%

— paper PMC2944810
